The source of these data is patent US20110200525A1 (published 2011).

What is called Kd is a measure of binding affinity in units of concentration. Low values mean tighter binding, high ones weaker binding. Usually koff stands for the rate constant with which the complex falls apart. A low value points to slow dissociation. Broadly, the kon is the rate constant with which the complex forms. A high value points to faster complex formation.

For assay [1], the target named is T1, human EGFR wild type (human, UniProt P00533 25-1210).
T1 construct: whole, on cells; also called EGFR on NR6W cells; EGFR in NR6W lysate
Briefly: saturation binding of 125I-labelled VHH122 on an EGFR-expressing cell, specific binding in CPM.

The target in assay [2] is T2, EGFR ECD (wild type) (UniProt P00533 25-645, limits assumed).
T2 construct: extracellular domain; the cell lines carry human EGFR; also called wild type EGFR ECD; EGFR extracellular domain
Kind of assay: SPR, Biacore 3000, EGFR ECD on CM5 chip, VHH at 0.6 µM. How it is done: (§1) The ka, kd, and KD values were determined for the binding of two VHH domains to the ECDs of EGFR and EGFRvIII by surface plasmon resonance (SPR). The ECDs were coupled to BIACORE® CM5 chips and VHH domains were sequentially flowed over each protein in the BIACORE® 3000 (GE Healthcare).
(In general: SPR reads the build-up and loss of mass on a sensor chip optically.)

Assay [3] addresses T2, EGFR ECD (wild type). Kind of assay: SPR, Biacore 3000, EGFR ECD on CM5 chip, VHH at 1.0 µM. How it is done:
as §1

Assay [4] deals with T2, EGFR ECD (wild type). Kind of assay: SPR, Biacore 3000, ECD on CM5 chip; summary value. Here is the method: as §1
For assay [5], the target named is T3, EGFRvIII ECD (UniProt P00533 25-645).
T3 construct: extracellular domain; Deletion mutant; also called vIII mutant EGFR ECD
Briefly: SPR, Biacore 3000, ECD on CM5 chip; summary value. Here is the method:
as §1

Assay [6] has as its target T3, EGFRvIII ECD. Briefly: SPR, Biacore 3000, EGFRvIII ECD on CM5 chip, VHH at 1.0 µM. How it is done:
as §1

In assay [7] the target is T3, EGFRvIII ECD. Briefly: SPR, Biacore 3000, EGFRvIII ECD on CM5 chip, VHH at 0.6 µM. How it is done:
as §1

The target of assay [8] is T1, human EGFR wild type. Briefly: phage format; assay not given.
In assay [9] the target is T4, human EGFRvIII (human, UniProt P00533 25-1210).
T4 construct: whole, on cells; Deletion mutant; also called EGFRvIII on NR6M cells; VIII mutant EGFR
Briefly: phage format; assay not given.

The target in assay [10] is T1, human EGFR wild type. Kind of assay: pull-down from NR6W lysate by His-tagged VHH on a nickel-chelate plate, Western blot with anti-EGFR mAb H11.
Description: The VHH domains were allowed to bind to the plate wells for 16 hr at 4° C., and then the wells were washed 3 times with Tris-buffered saline containing 0.1% (v/v) TWEEN®-20 (TBST). NR6W lysate (450 μg) made with M-PER reagent (Pierce) plus EDTA-free protease inhibitors (Roche Applied Science) was added to each well and allowed to incubate for 16 hr at 4° C. The lysate was removed, and the wells were washed 15 times with TBST. Protein remaining on the well surface was eluted in SDS-PAGE sample buffer containing 1% (v/v) β-mercaptoethanol and 100 mM imidazole, preheated to 95° C. […] The blot was developed with SuperSignal West™ substrate (Pierce) and exposed to film.
NR6W lysate was added to each well and allowed to incubate for 16 hr at 4° C. The lysate was removed, the wells were washed and remaining protein eluted. Samples were subjected to SDS-PAGE and proteins were transferred to a PVDF membrane that was then probed for EGFR.
For assay [11], the target named is T2, EGFR ECD (wild type). Kind of assay: SPR, Biacore 3000, ECD coupled to CM5 chip. How it is done:
as §1

In assay [12] the target is T3, EGFRvIII ECD. Kind of assay: SPR, Biacore 3000, ECD coupled to CM5 chip. Here is the method: as §1

Values joined by “and” are separate entries in the source; they are usually repeats but may differ in a detail not shown here. Equal values may be shown once.

B1: [125I]VHH122 (VHH)
VHH: EVQLQESGGGLVQAGDSLRLSCLVSGRSFNSYTMGWFRQAPGKEREFVAAILWSGPTTYYADSVKGRFTISRDNAKNTVYLQMNSLKPEDTAVYYCAAALGVLVLAPGNVYSYWGQGTQVTVSS
modifications: 125I label; labelled residues not stated
notes: not shown: C-terminal 6-His and myc tags from pHEN1-H6
With B1, the affinity in assay [1], expressed as Kd, was 46 nM.

B2: VHH122 (VHH)
VHH: B1 VHH
notes: polyhistidine and myc tagged; also called VH122; not shown: C-terminal 6-His and myc tags from pHEN1-H6
For the molecule B2, the Ka is 2.58e+07 M⁻¹ in assay [2]; 4.95e+07 M⁻¹ and 1.73e+07 M⁻¹ in assay [3]; 1.82e+07 M⁻¹ in assay [6]; 3.01e+07 M⁻¹ in assay [7]. The Kd in assay [2] was 38.7 nM; in [3], 20.2 nM and 57.8 nM; in [4] it was roughly 40 nM; in assay [5], roughly 40 nM; in assay [6], 55 nM; in assay [7] it was 33.2 nM. Moreover, the off-rate constant (koff) in [2] is 0.00318 s⁻¹; in assay [3], 0.00207 s⁻¹ and 0.00333 s⁻¹; in [6] it was 0.00308 s⁻¹; in assay [7], 0.00304 s⁻¹. The kon was 82300 M⁻¹ s⁻¹ in assay [2]; 57600 M⁻¹ s⁻¹ and 102000 M⁻¹ s⁻¹ in assay [3]; 56100 M⁻¹ s⁻¹ in assay [6]; 91300 M⁻¹ s⁻¹ in assay [7].

B3: VHH205 (VHH)
VHH: QVKLQESGGGLVQSGGSLRLSCIASGSTVSGNTMGWYRQAPGKQRELVAVISSVGVSNVAQSVKGRFAISRDNAKNTVYLQMSSLKPEDTAVYYCNALGTGRANWGQGTQVTVSS
notes: Free VHH used in SPR; not shown: C-terminal 6-His and myc tags from pHEN1-H6
Take B3: in assay [3], the Ka was 1.34e+07 M⁻¹, binding was put at a Kd of 74.7 nM, the koff was determined as 0.0115 s⁻¹ and the kon turned out to be 154000 M⁻¹ s⁻¹.

B4: VHH03 (VHH)
VHH: EVKLQQSGGGLVQPGGSLTLSCVTSGFTFSTYGMDWVRQAPGKGFEWVASISFGGGITNYGDFVKGRFTISRDNAKNTLYLHMNGLKPDDTAVYYCQMGSKRGQGTQVTVSS
For the molecule B4, the binding result is “binds” in assay [8] and “no binding” in [9].

B5: RP2 (VHH)
VHH: EVQLQESGGGLVQAGGSLRLSCAASGSTFSNEPFGWYRGAPGKLRELVGTISAGGNTNYVDAVKGRFMISRDNGRRMVYLQMNNLRPDDTAVYYCWNRGYWGQGTQVTVSS
notes: Random library clone used as negative control, as free VHH; also called random VHH domain RP2; control VHH RP2; not shown: C-terminal 6-His and myc tags from pHEN1-H6
As for B5, the binding result in assay [10] was “no binding (tested: 20 ug VHH per well)”; in assay [11] it was “no binding”; in assay [12], “no binding”.
